Test results published in paper PMC12045048.

Target: AMBRA1 (activating molecule in beclin-1-regulated autophagy), endogenous in MDA-MB-231 cells (UniProt Q9C0C7)
Experiment: anti-FLAG co-immunoprecipitation with proteomics (spectral counts)
Conditions: parent: 0

UniProt Q9C0C7, sequence (Q9C0C7 whole entry): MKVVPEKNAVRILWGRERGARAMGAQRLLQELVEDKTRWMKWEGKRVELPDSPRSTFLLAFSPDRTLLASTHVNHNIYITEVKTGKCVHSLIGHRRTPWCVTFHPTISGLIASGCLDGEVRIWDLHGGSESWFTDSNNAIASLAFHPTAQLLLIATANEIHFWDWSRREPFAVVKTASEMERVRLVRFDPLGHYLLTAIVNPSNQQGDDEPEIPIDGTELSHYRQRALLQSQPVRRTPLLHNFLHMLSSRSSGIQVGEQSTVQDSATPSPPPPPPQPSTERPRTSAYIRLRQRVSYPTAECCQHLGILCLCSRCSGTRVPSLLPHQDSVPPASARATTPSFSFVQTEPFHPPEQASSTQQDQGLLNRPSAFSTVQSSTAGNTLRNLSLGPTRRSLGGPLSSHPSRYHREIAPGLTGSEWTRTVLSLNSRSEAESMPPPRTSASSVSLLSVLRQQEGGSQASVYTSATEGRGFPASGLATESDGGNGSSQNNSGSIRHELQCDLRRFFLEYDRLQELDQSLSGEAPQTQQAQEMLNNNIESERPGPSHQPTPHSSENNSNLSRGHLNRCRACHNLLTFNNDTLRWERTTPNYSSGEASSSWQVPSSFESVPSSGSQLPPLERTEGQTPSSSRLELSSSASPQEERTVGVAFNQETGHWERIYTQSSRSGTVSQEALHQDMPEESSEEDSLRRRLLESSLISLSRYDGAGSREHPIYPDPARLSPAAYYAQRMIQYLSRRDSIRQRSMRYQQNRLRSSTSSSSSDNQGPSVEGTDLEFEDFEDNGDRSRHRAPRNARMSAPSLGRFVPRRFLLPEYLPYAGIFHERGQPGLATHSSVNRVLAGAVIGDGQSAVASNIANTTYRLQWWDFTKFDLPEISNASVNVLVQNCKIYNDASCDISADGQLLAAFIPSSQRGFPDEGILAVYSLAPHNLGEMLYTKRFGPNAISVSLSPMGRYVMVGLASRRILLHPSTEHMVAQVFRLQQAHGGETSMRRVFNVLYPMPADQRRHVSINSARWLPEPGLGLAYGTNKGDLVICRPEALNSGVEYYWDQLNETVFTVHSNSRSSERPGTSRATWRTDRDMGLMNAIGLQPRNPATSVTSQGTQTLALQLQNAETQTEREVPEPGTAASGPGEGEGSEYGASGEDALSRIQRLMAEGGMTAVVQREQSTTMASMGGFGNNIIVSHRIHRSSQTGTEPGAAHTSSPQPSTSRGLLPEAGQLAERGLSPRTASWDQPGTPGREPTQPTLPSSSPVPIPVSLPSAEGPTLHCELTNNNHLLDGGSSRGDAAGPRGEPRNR

In the case of “FLAG–Rab40c (wild type) in MDA-MB-231 cells (from UniProt Q96S21) 4A (211-LPLP-216 to 211-AAAA-216)”, the other: Spectral Counts (spectral counts) is reported as 7.
